Experimental data as given in patent US20170267762A1 (APOLLOMICS, published 2017).

How the values were obtained:
[1] = biological target: T1, human PD-1 extracellular domain fused with human Fc tag (hPD-1-hFc) (human); assay: ELISA on coated PD1-hFc
T1 construct: also called human PD-1-hFc
Protocol: (§1) ELISA binding analysis was conducted based on human PD-1-hFc Protein. 96-well plates (Costar, Cat No:9018) were coated with 100 μL of 2 μg/ml PD1-hFc (CrownBio) in coating buffer (PBS, Hyclone, Cat No:SH30256.01B) overnight at 4° C. The wells were aspirated and non-specific binding sites were blocked by adding 200 μL of blocking buffer with 1% (w/v) of bovine serum albumin (BSA, Roche, Cat No: 738328) and incubating for 1 hour at 37° C. After the plates are washed three times with wash buffer (PBS with 0.05%(v/v) Tween20 (Sigma, Cat No:P1379), 100 μL/well of a suitable dilutions of hybridoma supernatant in blocking buffer were added and incubated at room temperature for 1 hour. The plates were washed and incubated with 100 μL/well of Goat anti-Mouse IgG (H+L) (Thermo, Cat No: 31432) in blocking buffer for 60 min. After the plates were washed, 100 μL/well of substrate solution (TMB(eBioscience, Cat No:00-4201-56) was added and the plates were incubated for 2min at room temperature. 100 μL/well of stop solution (2N H2SO4) was added to stop the reaction. The colorimetric signals were developed and read at 450 nm using a Auto Plate SpectraMax Plus (Supplier: Molecular Devices; Model: MNR0643; Software: SoftMax Pro v5.4).
(§2) Freestyle 293 cells (200 mL at 10⁶/mL) were transfected with 100 μg of each of the chimeric heavy and light chain expression plasmids and cultured for 6 days. The chimeric antibody in the supernatant was then purified with Protein-G column (GE healthcare).

[2] = biological target: T2, human PD-1 on cells (293T cells transfected with human PD-1) (human, UniProt Q15116 25-288); assay: FACS on hPD-1-293T cells
T2 construct: whole, on cells; Also used as the target for the functional rows, where PD-1 stands on human T cells
Protocol: (§3) The cells were incubated with the indicated antibody (20 ug/ml with the dilution of ⅕) at 4° C. for 1 h. Cells were washed three times with FACS buffer. A secondary antibody (PE Goat anti-mouse: 1:200; PE mouse anti-human: 1:10) was added to the cells at 100 ul/well, and incubated at 4° C. for 40min. Cells were washed three times with FACS buffer and analyzed by FACS Array.
as §2

[3] = biological target: T2, human PD-1 on cells (293T cells …); assay: FACS blockage on hPD-1-293T cells, competitor biotin PD-L1
Protocol: Various concentrations of the testing hybridoma antibodies were added to the cell suspension and incubated at 4° C. for 60 minutes in 96 well plates. […] Plates were washed 3 times, and mouse anti-biotin PE antibody (Biolgend, cat# 409004) was added. Flow cytometric analyses were performed using a FACS Array.
as §2

[4] = biological target: T3, human PD-1 extracellular domain fused with mouse Fc (PD-1-mFc) (human, UniProt Q15116 25-170); assay: blockage ELISA, coated PD-1-mFc, competitor PDL-1-mFc-biotin
T3 construct: extracellular domain; not used because of the label; also called hPD-1-mFc; human PD-1-mouse Fc fusion protein
Protocol: (§4) PD-1-mFc antigen (CrownBio) was suspended in PBS (Hyclone,Cat No:SH30256.01B) buffer (2 ug/ml, 100 ul/ well) and coated on the 96 well plate (costar, Cat No.:9018) 4° C. overnight. Plates were washed 3 times using washing buffer: PBS+0.05% Tween 20(Sigma, Cat No.:P1379). 200 ul of blocking buffer (PBS+1%BSA(Roche, Cat No.:738328)), was added to each well, incubated at 37° C. for 1 hour, and washed 3 times. Various concentrations (suitable dilutions of hybridoma supernatant in PBS) of the anti-PD-1 Abs were added to the wells (100 μl/well) and incubated at 37° C. for 1 hour. […] Secondary antibody (Avidin HRP eBioscience cat No.:E07418-1632, 1:500, 100 ul/well) was added, incubated at 37 ° C. for 0.5 hour, and washed 3 times. TMB (Sigma, Cat No.: T0440, 100 ul/well) was added, and incubated for 3 min at RT. To stop the reaction, 2N H2SO4 (100 ul/well), was added. The colorimetric signals were developed and read at 450 nm using a Auto Plate SpectraMax Plus (Supplier: Molecular Devices; Model: MNR0643; Software: SoftMax Pro v5.4).
as §2

[5] = biological target: T2, human PD-1 on cells (293T cells …); assay: FACS binding to 293T cells expressing human PD-1, MFI
Protocol: as §3

[6] = biological target: T1, human PD-1 extracellular domain fused …; assay: ELISA binding to plate-bound PD-1, OD450 (methods similar to Example 2: plate coated with PD1-hFc)
Protocol: as §1

[7] = biological target: T3, human PD-1 extracellular domain fused …; assay: ELISA ligand blockage: biotinylated PD-L1-mFc binding to plate-bound PD-1, OD450 (methods similar to Example 2: PD-1-mFc coated)
Protocol: as §4

T2 sequence (Q15116 25-288): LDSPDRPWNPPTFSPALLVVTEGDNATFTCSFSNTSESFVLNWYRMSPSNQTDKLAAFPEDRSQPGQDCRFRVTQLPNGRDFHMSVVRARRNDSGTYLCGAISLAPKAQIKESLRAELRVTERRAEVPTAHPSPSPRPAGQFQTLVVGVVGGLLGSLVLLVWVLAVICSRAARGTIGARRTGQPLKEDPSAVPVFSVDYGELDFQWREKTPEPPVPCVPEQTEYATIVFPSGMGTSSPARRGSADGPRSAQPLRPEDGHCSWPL
T3 sequence (Q15116 25-170): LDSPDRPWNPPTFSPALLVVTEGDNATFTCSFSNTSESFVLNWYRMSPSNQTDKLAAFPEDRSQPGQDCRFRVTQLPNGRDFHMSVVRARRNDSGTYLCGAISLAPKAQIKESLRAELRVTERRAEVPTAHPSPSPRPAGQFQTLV
T1 sequence (chain, as listed by the source limits assumed): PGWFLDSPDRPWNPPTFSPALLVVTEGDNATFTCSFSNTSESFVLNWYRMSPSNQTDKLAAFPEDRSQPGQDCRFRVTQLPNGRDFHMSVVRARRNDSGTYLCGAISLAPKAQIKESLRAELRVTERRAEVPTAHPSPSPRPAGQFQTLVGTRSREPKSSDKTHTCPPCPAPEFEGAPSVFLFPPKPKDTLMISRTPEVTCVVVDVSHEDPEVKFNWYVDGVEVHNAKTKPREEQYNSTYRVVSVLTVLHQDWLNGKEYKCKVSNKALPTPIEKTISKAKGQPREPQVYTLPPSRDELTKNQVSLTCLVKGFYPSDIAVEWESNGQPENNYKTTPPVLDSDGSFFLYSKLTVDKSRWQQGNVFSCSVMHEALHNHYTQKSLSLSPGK

Binder | EC50 [1] | EC50 [2] | IC50 [3] | IC50 [4] | EC50 [5] | EC50 [6] | IC50 [7]
chimeric 4C10-hIgG4 (antibody, V domains shown, Mouse variable regions with human IgG4 constant region) VH: QVQLKQSGPGLVQPSQNLSVTCTVSGFSLTTYGVHWVRQSPGKGLEWLGVIWSGGSTDYNAAFISRLTISKDNARSQVFFKMNSLQVNDTAMYYCAREKSVYGNYVGAMDYWGQGTSVTVSS VL: SIVMTQTPKFLLVSAGDRVTITCKASQSVSDDVAWYQQKPGQSPKLLIYYAFNRYTGVPDRFTGSGYGTDFTFTISTVQSEDLAVYFCQQDYRSPWTFGGGTKLEIKR | 0.0946 µg/mL | 0.221 µg/mL | 0.129 µg/mL | 0.978 µg/mL | – | – | –
chimeric 7A4-hIgG4 (antibody, Full chimeric chains) heavy: not shown light: DIVLTQSPASLAVSLGQRATISCRASESVDNYGYSFMNWFQQKPGQPPKLLIYRASNLESGIPARFSGSGSRTNFTLTINPVEADDVATYFCQQSNADPTFGGGTNLEIKRTVAAPSVFIFPPSDEQLKSGTASVVCLLNNFYPREAKVQWKVDNALQSGNSQESVTEQDSKDSTYSLSSTLTLSKADYEKHKVYACEVTHQGLSSPVTKSFNRGEC | 0.062 µg/mL | 0.0916 µg/mL | 0.0706 µg/mL | 0.871 µg/mL | 0.137 µg/mL | 0.0474 µg/mL | 0.845 µg/mL
chimeric 7A4-hIgG1 (antibody, Full chimeric chains; also called 7A4-chimeric-IgG1) heavy: not shown light: DIVLTQSPASLAVSLGQRATISCRASESVDNYGYSFMNWFQQKPGQPPKLLIYRASNLESGIPARFSGSGSRTNFTLTINPVEADDVATYFCQQSNADPTFGGGTNLEIKRTVAAPSVFIFPPSDEQLKSGTASVVCLLNNFYPREAKVQWKVDNALQSGNSQESVTEQDSKDSTYSLSSTLTLSKADYEKHKVYACEVTHQGLSSPVTKSFNRGEC | – | – | – | – | 0.0337 µg/mL | 0.0128 µg/mL | 0.356 µg/mL

Continued, values first:

EC50 [1] | EC50 [2] | IC50 [3] | IC50 [4] | EC50 [5] | EC50 [6] | IC50 [7] | Binder
0.0587 µg/mL | 0.113 µg/mL | 0.0521 µg/mL | 0.856 µg/mL | 0.0815 µg/mL | 0.0456 µg/mL | 0.878 µg/mL | chimeric 13F1-hIgG4 (antibody, V domains shown, Full chimeric chains; also called 13F1-chimeric) VH: DVQLQESGPGLVKPSQSLSLTCTVTGYSITSDYAWNWIRQFPGNQLEWMAYISYSGYTSYNPSLKSRISITRDTSKNQFFLQLNSVTTEDTATYYCARSLDYDYGTMDYWGQGTSVTVSS VL: QIVLSQSPAILSASPGEKVTMTCRANSSVSSMHWYQQKPGSSPEPWIYAISNLAFGVPTRFSGSGSGTSYSLTISRVEAEDAATYFCQQWSSRPPTFGGGTKLEIKR
0.0646 µg/mL | 0.103 µg/mL | 0.0614 µg/mL | 0.823 µg/mL | – | – | – | chimeric 14A6-hIgG4 (antibody, V domains shown, Mouse variable regions with human IgG4 constant region) VH: DVQLQESGPGLVKPSQSLSLTCTVTGYSITSDYAWNWIRQFPGNQLEWMAYISYSGYTSYNPSLKSRISITRDTSRNQFFLQLNSVTTEDTATYYCARSLDYDYGTMDYWGQGTSVTVSS VL: QIVLSQSPAILSASPGEKVTMTCRANSSVSSMHWYQQKPGSSPEPWIYAISNLAFGVPARFSGSGSGTSYSLTISRVEAEDAATYFCQQWNSRPPTFGGGTKLEIKR
0.0588 µg/mL | 0.219 µg/mL | 0.0403 µg/mL | 1.03 µg/mL | – | – | – | chimeric 10D1-hIgG4 (antibody, V domains shown, Mouse variable regions with human IgG4 constant region) VH: EVKLVESGGGLVKPGGSLKLSCAASGFTFSSYGMSWLRQTPEKRLEWVATMSGGGRDIYYPDSMKGRFTISRDNAKNNLYLQMSSLRSEDTALYYCARQYYDDWFAYWGQGTLVTVSA VL: DIVLTQTPATLSVTPGDSVSLSCRASQSISNNLHWYQQKSHESPRLLIKYASQSISGIPSRFSGSGSGTDFTLNINSVETEDFGMYFCQQSNSWPLTFGAGTKLELKR
